Test results published in publication PMC10617981 (2023).

Molecular target: T1, SND1 recombinant protein (Origene, TP300059) (human, UniProt Q7KZF4 1-910, site-specific cysteine labeling with the RED-MALEIMIDE 2nd Generation kit (fluorescent dye))
T1 chain: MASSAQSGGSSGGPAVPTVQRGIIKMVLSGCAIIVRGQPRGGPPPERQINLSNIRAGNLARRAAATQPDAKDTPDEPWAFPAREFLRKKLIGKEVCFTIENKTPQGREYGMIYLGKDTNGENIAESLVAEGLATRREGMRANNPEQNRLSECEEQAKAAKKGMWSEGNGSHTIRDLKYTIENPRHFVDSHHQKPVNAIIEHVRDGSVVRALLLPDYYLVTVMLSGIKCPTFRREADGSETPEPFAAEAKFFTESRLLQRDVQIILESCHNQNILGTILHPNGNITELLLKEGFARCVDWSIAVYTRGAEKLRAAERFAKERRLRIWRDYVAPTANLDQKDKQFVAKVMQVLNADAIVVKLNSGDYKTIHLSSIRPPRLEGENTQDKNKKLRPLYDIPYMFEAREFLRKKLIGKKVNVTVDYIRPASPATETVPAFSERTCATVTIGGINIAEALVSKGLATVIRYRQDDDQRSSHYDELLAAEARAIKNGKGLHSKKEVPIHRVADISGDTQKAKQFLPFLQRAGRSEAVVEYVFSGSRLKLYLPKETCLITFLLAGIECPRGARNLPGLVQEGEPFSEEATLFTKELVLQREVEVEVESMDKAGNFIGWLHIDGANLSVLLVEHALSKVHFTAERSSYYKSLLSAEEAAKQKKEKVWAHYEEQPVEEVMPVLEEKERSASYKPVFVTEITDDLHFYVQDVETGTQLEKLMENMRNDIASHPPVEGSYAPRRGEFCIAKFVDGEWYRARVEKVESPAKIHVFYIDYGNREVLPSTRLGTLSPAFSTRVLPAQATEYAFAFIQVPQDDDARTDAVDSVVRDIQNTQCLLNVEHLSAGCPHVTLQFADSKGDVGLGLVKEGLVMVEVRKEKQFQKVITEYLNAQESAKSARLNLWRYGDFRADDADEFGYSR
Assay: MST

B1: NSP9 recombinant protein (Abcam, ab289608) (natural protein)
chain: NNELSPVALRQMSCAAGTTQTACTDDNALAYYNTTKGGRFVLALLSDLQDLKWARFPKSDGTGTIYTELEPPCRFVTDTPKGPKVKYLYFIKGLNNLNRGMVLGSLAATVRLQ
B1 was tested, and the Kd was 8.8 µM.
